From patent publication US20260184777A1 (BEIJING SUNGEN BIOMEDICAL TECHNOLOGY, published 2026)
Changes are numbered by the printed parent chain.

T1: human S100A8/A9 heterodimeric antigen, His-tagged (hS100A8/A9-His) (human, UniProt P05109 1-93; P06702 1-114)
T1 sequence 1: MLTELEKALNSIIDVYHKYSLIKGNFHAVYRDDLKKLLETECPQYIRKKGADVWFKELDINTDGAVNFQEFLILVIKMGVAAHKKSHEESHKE
T1 sequence 2: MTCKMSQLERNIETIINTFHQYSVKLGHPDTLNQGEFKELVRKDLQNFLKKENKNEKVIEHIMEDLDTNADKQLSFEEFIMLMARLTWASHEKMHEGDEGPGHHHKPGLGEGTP

B1: CM-50 (antibody, human IgG4 S228P, lambda, V domains shown)
VH: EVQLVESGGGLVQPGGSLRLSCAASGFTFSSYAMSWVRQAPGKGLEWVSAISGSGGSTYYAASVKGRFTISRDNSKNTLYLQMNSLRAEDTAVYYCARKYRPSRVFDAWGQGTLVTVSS
VL: SYELTQPPSVSVAPGQTARITCSGDALGDKYASWYQQKPGQAPVLVIYEDAKRPSGIPERFSGSNSGNTATLTISGTQAEDEADYYCQSNDADAVWVFGGGTKLTVLG
B2: CM-52 (antibody, human IgG4 S228P, lambda, V domains shown)
VH: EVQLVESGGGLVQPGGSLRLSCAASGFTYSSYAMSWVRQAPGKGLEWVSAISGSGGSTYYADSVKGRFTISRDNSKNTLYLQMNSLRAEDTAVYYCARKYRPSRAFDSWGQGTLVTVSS
VL: B1 VL with A92I, A94S
B3: CM-73 (antibody, human IgG4 S228P, lambda, V domains shown)
VH: EVQLVESGGGLVQPGGSLRLSCAASGFTYSSYAMSWVRQAPGKGLEWVSAISGSGGSTYYAASVKGRFTISRDNSKNTLYLQMNSLRAEDTAVYYCARKYRPSRAFDAWGQGTLVTVSS
VL: B1 VL with E49Q, A92I
B4: CM-71 (antibody, human IgG4 S228P, lambda, V domains shown)
VH: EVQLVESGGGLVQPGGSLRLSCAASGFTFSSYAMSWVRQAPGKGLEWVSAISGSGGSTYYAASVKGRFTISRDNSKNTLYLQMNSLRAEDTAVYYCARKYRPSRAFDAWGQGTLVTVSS
VL: B1 VL with Y31F, A92I
B5: CM-63 (antibody, human IgG4 S228P, lambda, V domains shown)
VH: B3 VH with Y29F, Y59W, A105V
VL: B1 VL with A92V
B6: CM-56 (antibody, human IgG4 S228P, lambda, V domains shown)
VH: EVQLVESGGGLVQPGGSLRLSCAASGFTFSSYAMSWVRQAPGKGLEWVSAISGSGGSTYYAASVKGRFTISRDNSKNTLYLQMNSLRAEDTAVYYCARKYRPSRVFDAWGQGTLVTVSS
VL: B1 VL with A92I
B7: CM-43 (antibody, human IgG4 S228P, lambda, V domains shown)
VH: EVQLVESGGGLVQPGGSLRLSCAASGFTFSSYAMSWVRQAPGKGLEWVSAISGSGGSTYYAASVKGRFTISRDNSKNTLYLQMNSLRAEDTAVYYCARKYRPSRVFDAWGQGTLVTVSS
VL: B1 VL with A94S
B8: CM-68 (antibody, human IgG4 S228P, lambda, V domains shown)
VH: B3 VH with Y29F, M34I
VL: B1 VL with A92L
B9: CM-74 (antibody, human IgG4 S228P, lambda, V domains shown)
VH: B3 VH with Y29F, Y59W, A105V, F106Y
VL: B1 VL with K52R, A92I
B10: CM-72 (antibody, human IgG4 S228P, lambda, V domains shown)
VH: B3 VH
VL: B1 VL with Y31F, A92I
B11: CM-81 (antibody, human IgG4 S228P, lambda, V domains shown)
VH: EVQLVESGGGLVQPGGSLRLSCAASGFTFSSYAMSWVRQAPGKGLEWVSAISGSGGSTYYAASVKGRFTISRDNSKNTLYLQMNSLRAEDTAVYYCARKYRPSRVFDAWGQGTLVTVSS
VL: B1 VL with P54D
B12: CM-77 (antibody, human IgG4 S228P, lambda, V domains shown)
VH: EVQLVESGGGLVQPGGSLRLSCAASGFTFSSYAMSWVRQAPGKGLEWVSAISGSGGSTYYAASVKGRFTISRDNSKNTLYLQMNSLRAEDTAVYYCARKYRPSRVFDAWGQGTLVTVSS
VL: B1 VL with K52N
B13: CM-76 (antibody, human IgG4 S228P, lambda, V domains shown)
VH: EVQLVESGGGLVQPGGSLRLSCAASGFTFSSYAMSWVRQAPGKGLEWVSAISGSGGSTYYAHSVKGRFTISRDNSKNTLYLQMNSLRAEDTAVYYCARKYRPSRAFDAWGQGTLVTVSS
VL: B1 VL with Y31F, A92V
B14: CM-57 (antibody, human IgG4 S228P, lambda, V domains shown)
VH: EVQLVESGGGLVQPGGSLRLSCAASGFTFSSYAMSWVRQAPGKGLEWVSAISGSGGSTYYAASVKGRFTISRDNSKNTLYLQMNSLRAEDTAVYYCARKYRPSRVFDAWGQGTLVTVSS
VL: B1 VL with Y31F, A92I
B15: CM-80 (antibody, human IgG4 S228P, lambda, V domains shown)
VH: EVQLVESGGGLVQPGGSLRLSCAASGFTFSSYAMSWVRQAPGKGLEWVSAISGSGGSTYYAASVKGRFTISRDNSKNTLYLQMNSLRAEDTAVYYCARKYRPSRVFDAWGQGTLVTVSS
VL: B1 VL with P54Q
B16: CM-79 (antibody, human IgG4 S228P, lambda, V domains shown)
VH: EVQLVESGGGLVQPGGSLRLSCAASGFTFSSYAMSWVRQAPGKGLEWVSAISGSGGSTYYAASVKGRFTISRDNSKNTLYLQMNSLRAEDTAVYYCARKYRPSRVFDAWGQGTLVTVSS
VL: B1 VL with P54N
B17: CM-42 (antibody, human IgG4 S228P, lambda, V domains shown)
VH: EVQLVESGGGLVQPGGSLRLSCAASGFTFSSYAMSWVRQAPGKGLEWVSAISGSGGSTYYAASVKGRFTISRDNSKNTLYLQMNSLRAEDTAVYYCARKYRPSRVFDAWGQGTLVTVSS
VL: B1 VL with A51S, A92I, A94S
B18: CM-78 (antibody, human IgG4 S228P, lambda, V domains shown)
VH: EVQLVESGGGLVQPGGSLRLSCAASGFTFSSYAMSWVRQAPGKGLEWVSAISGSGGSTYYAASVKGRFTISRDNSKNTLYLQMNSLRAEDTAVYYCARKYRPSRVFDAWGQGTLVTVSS
VL: B1 VL with K52H
B19: CM-66 (antibody, human IgG4 S228P, lambda, V domains shown)
VH: B3 VH
VL: B1 VL with A92I
B20: CM-55 (antibody, human IgG4 S228P, lambda, V domains shown)
VH: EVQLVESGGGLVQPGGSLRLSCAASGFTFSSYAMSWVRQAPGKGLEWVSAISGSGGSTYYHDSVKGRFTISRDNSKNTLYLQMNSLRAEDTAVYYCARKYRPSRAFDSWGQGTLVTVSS
VL: B1 VL with Y31F, A51S
B21: CM-46 (antibody, human IgG4 S228P, lambda, V domains shown)
VH: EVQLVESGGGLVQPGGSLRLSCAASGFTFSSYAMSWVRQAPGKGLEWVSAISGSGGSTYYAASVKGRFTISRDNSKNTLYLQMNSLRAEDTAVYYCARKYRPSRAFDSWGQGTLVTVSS
VL: B1 VL with Y31F, A51S, A94S
B22: CM-45 (antibody, human IgG4 S228P, lambda, V domains shown)
VH: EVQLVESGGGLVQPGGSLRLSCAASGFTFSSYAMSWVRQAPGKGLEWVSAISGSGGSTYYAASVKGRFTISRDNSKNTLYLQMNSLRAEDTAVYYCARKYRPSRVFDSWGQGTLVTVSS
VL: B1 VL
B23: CM-60 (antibody, human IgG4 S228P, lambda, V domains shown)
VH: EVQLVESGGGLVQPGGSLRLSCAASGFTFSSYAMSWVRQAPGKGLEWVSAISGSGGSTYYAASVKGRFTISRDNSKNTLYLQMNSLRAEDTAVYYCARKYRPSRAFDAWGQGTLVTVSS
VL: B1 VL with A92I
B24: CM-59 (antibody, human IgG4 S228P, lambda, V domains shown)
VH: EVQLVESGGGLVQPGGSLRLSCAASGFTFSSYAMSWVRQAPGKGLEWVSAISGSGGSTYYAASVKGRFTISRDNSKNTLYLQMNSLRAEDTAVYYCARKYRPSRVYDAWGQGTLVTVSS
VL: B1 VL with A92I
B25: CM-58 (antibody, human IgG4 S228P, lambda, V domains shown)
VH: B3 VH with Y29F, Y59W, A105V
VL: B1 VL with A92I
B26: CM-53 (antibody, human IgG4 S228P, lambda, V domains shown)
VH: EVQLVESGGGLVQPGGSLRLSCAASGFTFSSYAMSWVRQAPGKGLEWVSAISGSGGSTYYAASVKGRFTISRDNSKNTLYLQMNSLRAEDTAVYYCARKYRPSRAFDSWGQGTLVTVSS
VL: B1 VL
B27: CM-47 (antibody, human IgG4 S228P, lambda, V domains shown)
VH: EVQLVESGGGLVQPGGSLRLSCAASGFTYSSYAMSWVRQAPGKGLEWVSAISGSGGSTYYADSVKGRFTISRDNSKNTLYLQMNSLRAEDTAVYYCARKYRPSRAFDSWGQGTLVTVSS
VL: B1 VL with A51S, A92I, A94S
B28: CM-40 (antibody, human IgG4 S228P, lambda, V domains shown)
VH: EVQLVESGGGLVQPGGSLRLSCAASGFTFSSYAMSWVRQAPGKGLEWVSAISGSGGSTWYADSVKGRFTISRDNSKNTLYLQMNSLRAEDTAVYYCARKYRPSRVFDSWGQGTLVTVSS
VL: B1 VL with A51S, A92V, A94S
B29: CM-41 (antibody, human IgG4 S228P, lambda, V domains shown)
VH: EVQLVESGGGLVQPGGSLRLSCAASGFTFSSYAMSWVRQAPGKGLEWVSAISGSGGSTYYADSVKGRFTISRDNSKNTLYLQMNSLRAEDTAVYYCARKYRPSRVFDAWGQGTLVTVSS
VL: B1 VL with A51S
B30: CM-44 (antibody, human IgG4 S228P, lambda, V domains shown)
VH: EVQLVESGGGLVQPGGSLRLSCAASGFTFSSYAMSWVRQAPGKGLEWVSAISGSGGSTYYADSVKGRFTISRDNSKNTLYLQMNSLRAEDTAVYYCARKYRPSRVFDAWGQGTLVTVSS
VL: B1 VL
B31: CM-65 (antibody, human IgG4 S228P, lambda, V domains shown)
VH: B3 VH with A105V
VL: B1 VL with E49Q, A92I
B32: CM-48 (antibody, human IgG4 S228P, lambda, V domains shown)
VH: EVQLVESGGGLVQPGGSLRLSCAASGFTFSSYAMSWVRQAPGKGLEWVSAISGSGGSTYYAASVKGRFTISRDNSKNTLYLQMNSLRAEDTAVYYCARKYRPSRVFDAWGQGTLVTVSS
VL: B1 VL with Y31F, A51S, A92I, A94S
B33: CM-67 (antibody, human IgG4 S228P, lambda, V domains shown)
VH: B3 VH with Y29F, Y32H, Y100F, A105V
VL: B1 VL with K52R
B34: CM-62 (antibody, human IgG4 S228P, lambda, V domains shown)
VH: B3 VH with Y29F, A33V, A105V
VL: B1 VL with K52R
B35: CM-61 (antibody, human IgG4 S228P, lambda, V domains shown)
VH: B3 VH with A105V
VL: B1 VL with E49Q
B36: CM-75 (antibody, human IgG4 S228P, lambda, V domains shown)
VH: B3 VH with Y29F, A61V
VL: B1 VL with Y31F, E49Q
B37: CM-70 (antibody, human IgG4 S228P, lambda, V domains shown)
VH: B3 VH with Y29F, A61H
VL: B1 VL with Y31F
B38: CM-49 (antibody, human IgG4 S228P, lambda, V domains shown)
VH: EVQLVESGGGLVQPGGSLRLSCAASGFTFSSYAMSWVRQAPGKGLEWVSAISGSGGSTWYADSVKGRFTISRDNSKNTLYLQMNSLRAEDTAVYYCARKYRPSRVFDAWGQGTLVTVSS
VL: B1 VL with A92I, A94S
B39: CM-69 (antibody, human IgG4 S228P, lambda, V domains shown)
VH: B3 VH with Y29F, Y59W
VL: B1 VL with E49Q
B40: CM-64 (antibody, human IgG4 S228P, lambda, V domains shown)
VH: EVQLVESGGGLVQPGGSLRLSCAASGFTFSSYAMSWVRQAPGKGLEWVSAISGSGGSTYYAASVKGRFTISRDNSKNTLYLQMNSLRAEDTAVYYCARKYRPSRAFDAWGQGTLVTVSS
VL: B1 VL with Y31F
B41: CM-54 (antibody, human IgG4 S228P, lambda, V domains shown)
VH: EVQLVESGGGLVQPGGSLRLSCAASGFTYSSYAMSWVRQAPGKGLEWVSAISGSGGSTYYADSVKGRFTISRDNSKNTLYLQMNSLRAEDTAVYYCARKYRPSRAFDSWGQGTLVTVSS
VL: B1 VL with Y31F, A51S, A92I, A94S

Each binder was assayed against T1, human S100A8/A9 heterodimeric antigen, … (assay: cell-based or functional assay).

Point of comparison: B32, “Relative IC50 (IC50 relative to CM-1), IL-6 release from hS100A8/A9-activated human PBMCs” value 1.58 relative to CM-1. Against it:
- B1 — lower, 0.679 relative to CM-1
- B2 — lower, 1.19 relative to CM-1
- B3 — lower, 0.703 relative to CM-1
- B4 — lower, 1.23 relative to CM-1
- B5 — lower, 1.33 relative to CM-1
- B6 — lower, 1.12 relative to CM-1
- B7 — higher, 1.99 relative to CM-1
- B8 — higher, 1.78 relative to CM-1
- B9 — lower, 1.52 relative to CM-1
- B10 — lower, 0.639 relative to CM-1
- B11 — higher, 2.51 relative to CM-1
- B12 — lower, 0.633 relative to CM-1
- B13 — lower, 1.55 relative to CM-1
- B14 — lower, 1.16 relative to CM-1
- B15 — lower, 0.943 relative to CM-1
- B16 — lower, 0.695 relative to CM-1
- B17 — lower, 0.866 relative to CM-1
- B18 — lower, 0.99 relative to CM-1
- B19 — lower, 0.694 relative to CM-1
- B20 — higher, 1.67 relative to CM-1
- B21 — lower, 1.51 relative to CM-1
- B22 — higher, 2.09 relative to CM-1
- B23 — lower, 0.936 relative to CM-1
- B24 — lower, 1.04 relative to CM-1
- B25 — lower, 1.52 relative to CM-1
- B26 — lower, 0.357 relative to CM-1
- B27 — higher, 2.12 relative to CM-1
- B28 — higher, 2.18 relative to CM-1
- B29 — lower, 1.11 relative to CM-1
- B30 — lower, 1.44 relative to CM-1
- B31 — lower, 0.618 relative to CM-1
- B33 — lower, 0.548 relative to CM-1
- B34 — the same, 1.58 relative to CM-1
- B35 — lower, 0.923 relative to CM-1
- B36 — higher, 2.85 relative to CM-1
- B37 — higher, 1.95 relative to CM-1
- B38 — lower, 0.617 relative to CM-1
- B39 — higher, 1.93 relative to CM-1
- B40 — lower, 0.5 relative to CM-1
- B41 — lower, 0.997 relative to CM-1
